Data: patent publication US20240382677A1 (Regeneron, published 2024)

Columns and labels:
[1] = molecular target: T1, recombinant human PD-1 dimer expressed with a C-terminal mouse IgG2a Fc tag (hPD-1-mFc) (human); test: BLI Octet Red 96, captured hPD-L1-hFc
T1 construct: also called human PD-1-mFc

[2] = molecular target: PD-1 chimera hPD1-hCD300a on Jurkat/AP1-Luc cells (human); test: cell-based or functional assay
[3] = molecular target: T2, monkey PD-1 with mFc (monkey PD-1-mFc) (monkey); test: SPR 25C, mAb captured
T2 construct: also called monkey PD-1 dimer; MfPD-1 dimer
T2 chain: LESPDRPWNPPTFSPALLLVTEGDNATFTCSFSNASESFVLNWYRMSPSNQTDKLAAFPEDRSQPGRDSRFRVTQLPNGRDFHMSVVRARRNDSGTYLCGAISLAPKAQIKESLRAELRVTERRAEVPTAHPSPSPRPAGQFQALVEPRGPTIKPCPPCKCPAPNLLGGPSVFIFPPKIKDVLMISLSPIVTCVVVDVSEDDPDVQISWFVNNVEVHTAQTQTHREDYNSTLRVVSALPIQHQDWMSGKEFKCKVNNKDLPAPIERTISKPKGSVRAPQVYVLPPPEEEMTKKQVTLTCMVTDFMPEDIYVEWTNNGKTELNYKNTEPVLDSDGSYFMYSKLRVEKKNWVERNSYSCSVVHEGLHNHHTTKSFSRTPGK

[4] = molecular target: T2, monkey PD-1 with mFc (monkey PD-1-mFc); test: SPR 37C, mAb captured;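 further: Real-time binding of antigen to purified anti-PD-1 antibodies, measured by surface plasmon resonance on a Biacore 4000 or T200 instrument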
[5] = molecular target: T1, recombinant human PD-1 dimer expressed …; test: competition ELISA, 1.5 nM hPD-1-mFc, coated hPD-L1-hFc
[6] = molecular target: recombinant human PD-1 expressed with a C-terminal human IgG1 Fc tag (hPD-1-hFc) (human); test: SPR Biacore 3000, captured hPD-L1-mFc
[7] = molecular target: T1, recombinant human PD-1 dimer expressed …; test: competition ELISA, 1.5 nM hPD-1-mFc, coated hPD-L1-hFc; * below assay bottom
[8] = molecular target: T3, polyclonal rabbit anti-mouse antibody (GE Catalog #BR-1008-38) coupled to the CM5 Biacore sensor surface (rabbit); test: SPR Biacore 3000, antibody alone over the anti-mouse Fc capture surface of the hPD-L1-mFc assay (background control)
T3 construct: also called anti-mouse Fc capture surface

[9] = molecular target: T4, recombinant human PD-1 expressed with a C-terminal myc-myc-hexahistidine tag (human); test: SPR Biacore, mAb captured, 37 C
T4 construct: monomeric reagent; also called hPD-1-MMH; human PD-1-MMH

[10] = molecular target: T5, human PD-1 dimer (human PD-1-mFc or human PD-1-hFc) (human, Fc-mediated homodimer; one copy of the chain is given.); test: SPR Biacore, mAb captured, 37 C
T5 construct: also called hPD-1-mFc; hPD1-hFc; not shown: The C-terminal Fc tag

[11] = molecular target: T6, recombinant cynomolgus monkey PD-1 expressed with a C-terminal myc-myc-hexahistidine tag (cynomolgus monkey); test: SPR Biacore, mAb captured, 37 C
T6 construct: also called MfPD-1-MMH; MIPD-1-MMH
T6 chain: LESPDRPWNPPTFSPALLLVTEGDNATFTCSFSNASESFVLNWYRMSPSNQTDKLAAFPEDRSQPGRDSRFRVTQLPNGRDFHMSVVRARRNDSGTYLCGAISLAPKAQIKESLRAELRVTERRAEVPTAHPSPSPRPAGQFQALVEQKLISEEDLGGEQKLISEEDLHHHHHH

[12] = molecular target: T6, recombinant cynomolgus monkey PD-1 …; test: SPR Biacore, mAb captured, 25 C

recombinant human PD-1 expressed with a C-terminal human IgG1 Fc tag (hPD-1-hFc) (human), sequence (chain, as listed by the source limits assumed): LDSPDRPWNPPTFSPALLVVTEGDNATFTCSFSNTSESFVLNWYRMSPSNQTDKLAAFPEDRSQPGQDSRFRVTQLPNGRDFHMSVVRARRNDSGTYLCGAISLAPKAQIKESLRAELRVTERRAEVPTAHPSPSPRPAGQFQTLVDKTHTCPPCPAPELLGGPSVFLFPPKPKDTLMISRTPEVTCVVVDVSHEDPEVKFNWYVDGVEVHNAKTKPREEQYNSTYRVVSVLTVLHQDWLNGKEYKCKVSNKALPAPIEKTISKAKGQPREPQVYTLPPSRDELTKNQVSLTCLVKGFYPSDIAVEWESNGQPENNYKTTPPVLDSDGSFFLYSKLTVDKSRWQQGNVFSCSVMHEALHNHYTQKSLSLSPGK
T5 sequence (chain, as listed by the source limits assumed): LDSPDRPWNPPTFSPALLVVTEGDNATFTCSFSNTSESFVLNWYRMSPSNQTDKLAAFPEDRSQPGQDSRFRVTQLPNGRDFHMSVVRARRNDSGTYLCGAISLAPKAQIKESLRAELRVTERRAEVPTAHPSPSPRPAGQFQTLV

B1: H2aM7780N (antibody, mouse IgG2a, V domains shown)
VH: QVQLVESGGGVVQSGRSLRLSCAASGFTFSSYGMHWVRQAPGKGLEWVAVIWYDGSNIYYSDSVKGRFTISRANSKNTLYLQMNSLRAEDTAVYYCARPGHWNYFFEYWGQGTLVTVSS
VL: DIQMTQSPSSLSASVGDRVTITCRASQSINNYLNWYQQKPGKAPKLLIYTASSLQSGVPSRFSGSGSGTDFTLTISSLQPEDFATYYCQQSYSTPPLTFGQGTQLEIK
notes: mouse IgG2a Fc; human variable regions; also called H2M7780N
binding of the mixture of 100 nM hPD-1-mFc and 500 nM antibody [1]: -0.01 nm | Concentration (M) of Antibody at 150% activation [2]: 6.62e-09 M

B2: H4H9019P (antibody, human IgG4, V domains shown)
VH: EVQLVESGGGVVRPGGSLRLSCAASGFTFDDYGMSWVRQVPGKGLEWVSGISWNDGKTVYAESVKGRFIISRDNAKNSLYLEMNSLRAEDTALYYCARDWQYLIERYFDYWGQGTLVTVSS
VL: not shown
notes: human IgG4 Fc; also called H4xH9019P
100 nM Monkey PD-1-mFc Bound [3]: 31 RU | t½ [3]: 129 min | 100 nM Monkey PD-1-mFc Bound [4]: 36 RU | t½ [4]: 45 min | % blocking at 200 nM antibody [5]: 96% | binding of the mixture of 100 nM hPD-1-hFc and 500 nM antibody [6]: -1 RU

B3: H4xH9034P (antibody, V domains shown)
VH: EVQLVESGGGVVRPGGSLRLSCTASGFTFDDYGMSWVRQAPGKGLEWISGIGWTGGRSSYADSVRGRFTISRDNAKNSLYLQMNSLGAEDTALYYCARDRQWLVQWYFDYWGQGTLVTVSS
VL: not shown
100 nM Monkey PD-1-mFc Bound [3]: 95 RU | t½ [3]: 70 min | 100 nM Monkey PD-1-mFc Bound [4]: 81 RU | t½ [4]: 15 min | IC50 [7]: < 0.75 nM

B4: H4H9048P2 (antibody, human IgG4 S228P, kappa, V domains shown)
VH: QVQLVQSGAEVKRPGSSVKVSCKVSGVTFRNFAIIWVRQAPGQGLEWMGGIIPFFSAANYAQSFQGRVTITPDESTSTAFMELASLRSEDTAVYYCAREGERGHTYGFDYWGQGTLVTVSS
VL: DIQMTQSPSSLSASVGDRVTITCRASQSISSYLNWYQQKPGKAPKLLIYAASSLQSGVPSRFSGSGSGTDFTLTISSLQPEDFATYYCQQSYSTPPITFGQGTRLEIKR
notes: human IgG4 Fc
% Blocking [6]: 91% | binding of the mixture of 100 nM hPD-1-hFc and 500 nM antibody [6]: 9 RU | 500 nM of anti-PD-1 monoclonal antibody (RU) [8]: -7 RU

B5: H4xH9120P2 (antibody, V domains shown)
VH: QVQLVQSGAEVKRPGASVKVSCKASGYTFTSFYMYWVRQAPGQGLEWMGIINPSDGSTSNAQKFQGRVTMTRDTSTSTVYMELSSLRSEDTAVYYCARRVAGDIFDIWGQGTMVTVSS
VL: not shown
notes: human IgG4 Fc with 2 or more amino acid changes as in US20100331527 (H4xH prefix)
kon [9]: 68600 M⁻¹ s⁻¹

B6: H2aM7794N (antibody, V domains shown)
VH: QLQLQESGPDLVKPSDTLSLTCTVSDDSISSTTYYWAWIRQPPGKGLEWIGSMSYNGNNYYNPSLKSRVAISAGTSQKQFSLKLTSVTAADTAVYHCARHLGYNGNWYPFDFWGQGILVTVSS
VL: not shown
notes: human variable regions with mouse IgG2a Fc (H2aM prefix); also called H2M7794N
t½ [10]: 65 min

B7: H2aM7788N (antibody, mouse IgG2a, V domains shown)
VH: EVQLVESGGGLVQPGGSLRLSCGASGFTFRNYDMHWVRQITGKGLEWVSAIGSAGDTYYPDSVKGRFTISRENAKNSLYLQMNSLRVGDTAVYYCTRDIHCSSTRCYGMDVWGQGTTVTVSS
VL: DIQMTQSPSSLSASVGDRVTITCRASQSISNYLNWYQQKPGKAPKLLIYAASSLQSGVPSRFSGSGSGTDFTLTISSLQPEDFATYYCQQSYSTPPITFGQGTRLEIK
notes: human variable regions with mouse IgG2a Fc (H2aM prefix); also called H2M7788N; H2aM7788M
t½ [11]: 3.6 min | kon [12]: 8530 M⁻¹ s⁻¹
